This note sets out measurements from article doi:10.1101/192500 (bioRxiv, 2018).

The chains are these.
B1: OmpC (wild type, in the purified OmpC-MlaA-His complex) (natural protein, E. coli)
chain: AEVYNKDGNKLDLYGKVDGLHYFSDNKDVDGDQTYMRLGFKGETQVTDQLTGYGQWEYQIQGNSAENENNSWTRVAFAGLKFQDVGSFDYGRNYGVVYDVTSWTDVLPEFGGDTYGSDNFMQQRGNGFATYRNTDFFGLVDGLNFAVQYQGKNGNPSGEGFTSGVTNNGRDALRQNGDGVGGSITYDYEGFGIGGAISSSKRTDAQNTAAYIGNGDRAETYTGGLKYDANNIYLAAQYTQTYNATRVGSLGWANKAQNFEAVAQYQFDFGLRPSLAYLQSKGKNLGRGYDDEDILKYVDVGATYYFNKNMSTYVDYKINLLDDNQFTRDAGINTDNIVALGLVYQF

Data set [1] concerns the molecule itself. In words: SEC-MALS. For orientation: Size exclusion chromatography separates by hydrodynamic size, large species first.
Data set [2] has as its target MlaA-His (from dmlaA-His plasmids, in purified OmpC-MlaA-His complexes) (E. coli) (UniProt P76506). In words: SEC-MALS.
Data set [3] deals with the molecule itself. In words: temperature titration with SDS-PAGE.
For data set [4], the target named is B1. In words: SEC.

The stoichiometry N is the number of molecules, sites or subunits per partner or assembly.

MlaA-His (from dmlaA-His plasmids, in purified OmpC-MlaA-His complexes) (E. coli), sequence (P76506 18-251, one chain of several): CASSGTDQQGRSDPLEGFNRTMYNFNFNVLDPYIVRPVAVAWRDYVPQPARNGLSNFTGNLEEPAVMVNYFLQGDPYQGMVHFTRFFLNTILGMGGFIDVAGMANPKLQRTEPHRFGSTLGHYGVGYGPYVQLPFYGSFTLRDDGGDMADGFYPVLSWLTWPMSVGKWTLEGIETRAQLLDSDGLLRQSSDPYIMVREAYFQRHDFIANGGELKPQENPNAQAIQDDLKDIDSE

As for B1, the “stoichiometry N” value in data set [1] is 3. Further, in data set [2], the stoichiometry N (MlaA per OmpC trimer) was found to be 1.

B2: OmpC_(R92A) (natural protein, E. coli, UniProt P06996 22-367, looked up)
chain: AEVYNKDGNKLDLYGKVDGLHYFSDNKDVDGDQTYMRLGFKGETQVTDQLTGYGQWEYQIQGNSAENENNSWTRVAFAGLKFQDVGSFDYGANYGVVYDVTSWTDVLPEFGGDTYGSDNFMQQRGNGFATYRNTDFFGLVDGLNFAVQYQGKNGNPSGEGFTSGVTNNGRDALRQNGDGVGGSITYDYEGFGIGGAISSSKRTDAQNTAAYIGNGDRAETYTGGLKYDANNIYLAAQYTQTYNATRVGSLGWANKAQNFEAVAQYQFDFGLRPSLAYLQSKGKNLGRGYDDEDILKYVDVGATYYFNKNMSTYVDYKINLLDDNQFTRDAGINTDNIVALGLVYQF
As to B2, the binding result in data set [3] is recorded as “binds”.

B3: OmpCG19W/R92L (natural protein, E. coli, UniProt P06996 22-367, looked up)
chain: AEVYNKDGNKLDLYGKVDWLHYFSDNKDVDGDQTYMRLGFKGETQVTDQLTGYGQWEYQIQGNSAENENNSWTRVAFAGLKFQDVGSFDYGLNYGVVYDVTSWTDVLPEFGGDTYGSDNFMQQRGNGFATYRNTDFFGLVDGLNFAVQYQGKNGNPSGEGFTSGVTNNGRDALRQNGDGVGGSITYDYEGFGIGGAISSSKRTDAQNTAAYIGNGDRAETYTGGLKYDANNIYLAAQYTQTYNATRVGSLGWANKAQNFEAVAQYQFDFGLRPSLAYLQSKGKNLGRGYDDEDILKYVDVGATYYFNKNMSTYVDYKINLLDDNQFTRDAGINTDNIVALGLVYQF
Consider B3, for which the binding result in data set [3] is listed as “binds”.

B4: OmpC_(R92L) (natural protein, E. coli, UniProt P06996 22-367, looked up)
chain: AEVYNKDGNKLDLYGKVDGLHYFSDNKDVDGDQTYMRLGFKGETQVTDQLTGYGQWEYQIQGNSAENENNSWTRVAFAGLKFQDVGSFDYGLNYGVVYDVTSWTDVLPEFGGDTYGSDNFMQQRGNGFATYRNTDFFGLVDGLNFAVQYQGKNGNPSGEGFTSGVTNNGRDALRQNGDGVGGSITYDYEGFGIGGAISSSKRTDAQNTAAYIGNGDRAETYTGGLKYDANNIYLAAQYTQTYNATRVGSLGWANKAQNFEAVAQYQFDFGLRPSLAYLQSKGKNLGRGYDDEDILKYVDVGATYYFNKNMSTYVDYKINLLDDNQFTRDAGINTDNIVALGLVYQF
As to B4, the binding result in data set [3] is recorded as “binds”.

B5: OmpC_(G19W) (natural protein, E. coli, UniProt P06996 22-367, looked up)
chain: AEVYNKDGNKLDLYGKVDWLHYFSDNKDVDGDQTYMRLGFKGETQVTDQLTGYGQWEYQIQGNSAENENNSWTRVAFAGLKFQDVGSFDYGRNYGVVYDVTSWTDVLPEFGGDTYGSDNFMQQRGNGFATYRNTDFFGLVDGLNFAVQYQGKNGNPSGEGFTSGVTNNGRDALRQNGDGVGGSITYDYEGFGIGGAISSSKRTDAQNTAAYIGNGDRAETYTGGLKYDANNIYLAAQYTQTYNATRVGSLGWANKAQNFEAVAQYQFDFGLRPSLAYLQSKGKNLGRGYDDEDILKYVDVGATYYFNKNMSTYVDYKINLLDDNQFTRDAGINTDNIVALGLVYQF
As for B5, the binding result in data set [3] is reported as “binds”.

B6: MlaA_(D61-K124) peptide (domain or fragment, E. coli, UniProt P76506 61-124, looked up)
chain: DYVPQPARNGLSNFTGNLEEPAVMVNYFLQGDPYQGMVHFTRFFLNTILGMGGFIDVAGMANPK
For the molecule B6, the binding result in data set [4] is on record as “binds”.
